Source: PMC3946203, “Specificity of ε and Non-ε Isoforms of Arabidopsis 14-3-3 Proteins Towards the H^+-ATPase and Other Targets” (PLoS ONE, 2014)
Where no end group is shown, it is not given here. [ ]: non-standard residue; d: D form. The star is where a group is joined. Biotin = O=C1N[C@H]2[C@H](CS[C@H]2CCCCC(=O)*)N1; pT = C[C@@H](OP(=O)(O)O)[C@H](N)C(=O)O

T1: GF14λ (Arabidopsis, UniProt P48349 1-248, 32P-phosphate on the phosphorylation site at the junction between GST and the cloned protein (overlay and bead binding assays))
T1 construct: 14-3-3 protein GF14 lambda, Arabidopsis, At5g10450; cDNA by RT-PCR with primers corresponding to the coding region; also called GF14 lambda; GST-GF14λ
T1 sequence (looked up): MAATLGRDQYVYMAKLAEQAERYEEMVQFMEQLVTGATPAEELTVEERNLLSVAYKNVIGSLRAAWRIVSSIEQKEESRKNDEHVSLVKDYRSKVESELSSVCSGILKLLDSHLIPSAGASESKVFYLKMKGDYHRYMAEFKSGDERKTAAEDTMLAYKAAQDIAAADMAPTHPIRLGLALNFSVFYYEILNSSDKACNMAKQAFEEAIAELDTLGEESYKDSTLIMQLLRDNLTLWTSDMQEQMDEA

T2: GF14κ (Arabidopsis, UniProt P48348 1-248, 32P-phosphate on the phosphorylation site at the junction between GST and the cloned protein (overlay and bead binding assays))
T2 construct: 14-3-3 protein GF14 kappa, Arabidopsis, At5g65430; cDNA by RT-PCR with primers corresponding to the coding region; also called GF14 kappa; GST-GF14κ
T2 sequence (looked up): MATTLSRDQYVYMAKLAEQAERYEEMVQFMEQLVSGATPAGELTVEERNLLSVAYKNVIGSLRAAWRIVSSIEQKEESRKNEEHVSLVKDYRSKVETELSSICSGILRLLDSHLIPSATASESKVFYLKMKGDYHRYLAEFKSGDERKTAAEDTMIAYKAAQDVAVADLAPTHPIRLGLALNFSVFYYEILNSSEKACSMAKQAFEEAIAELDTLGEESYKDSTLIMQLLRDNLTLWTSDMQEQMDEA

T3: GF14χ (Arabidopsis, UniProt P42643 1-267, 32P-phosphate on the phosphorylation site at the junction between GST and the cloned protein (overlay and bead binding assays))
T3 construct: 14-3-3 protein GF14 chi, Arabidopsis, At4g09000; cDNA by RT-PCR with primers corresponding to the coding region; also called GF14 chi; GST-GF14χ
T3 sequence (looked up): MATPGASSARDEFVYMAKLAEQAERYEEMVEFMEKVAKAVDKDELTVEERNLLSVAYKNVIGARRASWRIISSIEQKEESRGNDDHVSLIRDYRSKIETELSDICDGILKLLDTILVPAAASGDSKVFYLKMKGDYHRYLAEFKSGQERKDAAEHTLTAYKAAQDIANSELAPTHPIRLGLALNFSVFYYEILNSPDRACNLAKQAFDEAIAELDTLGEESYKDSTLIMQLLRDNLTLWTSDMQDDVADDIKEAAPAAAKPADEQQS

T4: GF14ωG213N (Arabidopsis, UniProt Q01525 1-259, G213N, 32P-phosphate on the phosphorylation site at the junction between GST and the cloned protein (bead binding assay))
T4 construct: GF14 omega, Arabidopsis, At1g78300, Gly213 changed into Asn; also called GF14ω loop 8 mutant; source: E. coli BL21(DE3), GST fusion (pGEX-2TK)
T4 sequence (looked up): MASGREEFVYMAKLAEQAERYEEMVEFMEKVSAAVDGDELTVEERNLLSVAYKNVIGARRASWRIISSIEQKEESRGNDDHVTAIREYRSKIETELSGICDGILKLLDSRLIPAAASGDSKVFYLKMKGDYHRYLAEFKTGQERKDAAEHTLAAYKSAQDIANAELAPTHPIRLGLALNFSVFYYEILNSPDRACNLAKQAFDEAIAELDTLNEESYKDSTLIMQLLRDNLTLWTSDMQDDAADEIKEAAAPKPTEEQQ

B1: GF14εN211G (natural protein, Arabidopsis, UniProt P48347 1-254, looked up)
chain: MENEREKQVYLAKLSEQTERYDEMVEAMKKVAQLDVELTVEERNLVSVGYKNVIGARRASWRILSSIEQKEESKGNDENVKRLKNYRKRVEDELAKVCNDILSVIDKHLIPSSNAVESTVFFYKMKGDYYRYLAEFSSGAERKEAADQSLEAYKAAVAAAENGLAPTHPVRLGLALNFSVFYYEILNSPESACQLAKQAFDDAIAELDSLGEESYKDSTLIMQLLRDNLTLWTSDLNEEGDERTKGADEPQDEN
modifications: 32P-phosphate on the phosphorylation site at the junction between GST and the cloned protein (bead binding assay)
notes: GF14 epsilon, Arabidopsis, At1g22300, Asn211 changed into Gly; also called GF14ε loop 8 mutant; source: E. coli BL21(DE3), GST fusion (pGEX-2TK)
B2: bL15Vp peptide (peptide)
peptide: Biotin-LKGLDIDTIQQNY[pT]V
notes: last 15 amino acids of the maize plasma membrane H+-ATPase isoform 2 (MHA2); also called phosphorylated biotinyl-peptide reproducing the last 15 residues of the MHA2 H+-ATPase; source: synthetic peptide (Neosystem, Strasbourg)

Key:
Details in all cases: both partners purified
bL15Vp peptide = target: B2; experiment: pull-down; bL15Vp on streptavidin-agarose magnetic beads; 0.1 nmol 32P-labeled GF14 wild type or loop 8 mutant in buffer HT with 5 mM Mg2+; FC not told for this experiment
GF14λ = target: T1, GF14λ; experiment: pull-down; 0.05 nmol bL15Vp on streptavidin-agarose magnetic beads; 0.1 nmol 32P-labeled GF14 in 50 µl buffer HT, 60 min, room temperature; without FC; bound radioactivity counted
GF14κ = target: T2, GF14κ; experiment: as above
GF14χ = target: T3, GF14χ; experiment: as above
GF14εN211G = target: B1; experiment: pull-down; bL15Vp on streptavidin-agarose magnetic beads; 0.1 nmol 32P-labeled GF14 wild type or loop 8 mutant in buffer HT without Mg2+; FC not told for this experiment
GF14ωG213N = target: T4, GF14ωG213N; experiment: pull-down; bL15Vp on streptavidin-agarose magnetic beads; 0.1 nmol 32P-labeled GF14 wild type or loop 8 mutant in buffer HT with 5 mM Mg2+; FC not told for this experiment

B1
fold more protein bound with 5 mM Mg2+ (reference not clear: wild type GF14ε or the mutant without Mg2+) (bL15Vp peptide): > 5 fold

B2
binding result (GF14λ): binds
binding result (GF14κ): binds
binding result (GF14χ): binds
binding result (GF14εN211G): binds
binding result (GF14ωG213N): binds
